This note sets out measurements from patent US20250388669A1 (published 2025).

One test deals with T1, B7H3 (UniProt Q5ZPR3 29-466, limits assumed).
T1 sequence (looked up): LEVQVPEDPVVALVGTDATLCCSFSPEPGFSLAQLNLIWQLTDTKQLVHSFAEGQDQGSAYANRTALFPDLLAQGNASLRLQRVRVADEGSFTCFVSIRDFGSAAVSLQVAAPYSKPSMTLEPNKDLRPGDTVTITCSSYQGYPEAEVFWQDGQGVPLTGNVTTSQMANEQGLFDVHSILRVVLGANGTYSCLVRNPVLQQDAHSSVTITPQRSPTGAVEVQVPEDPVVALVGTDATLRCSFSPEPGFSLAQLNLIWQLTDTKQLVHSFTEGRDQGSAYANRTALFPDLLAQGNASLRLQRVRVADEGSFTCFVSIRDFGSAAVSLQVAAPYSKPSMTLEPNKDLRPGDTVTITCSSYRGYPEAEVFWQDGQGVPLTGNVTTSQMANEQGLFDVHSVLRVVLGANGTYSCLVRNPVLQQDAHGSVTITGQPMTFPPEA
Briefly: FCM or ELISA (graded summary table). On the technique in general: In an ELISA, binding on a coated surface is turned into a signal by an enzyme label.

The next test addresses T2, CD137 (UniProt Q07011 24-186, limits assumed).
T2 construct: also called 4-1BB
Briefly: FCM or ELISA (graded summary table).

The next test has as its target T3, CD19 (UniProt P15391 20-556, limits assumed).
T3 construct: whole, on cells
T3 sequence (looked up): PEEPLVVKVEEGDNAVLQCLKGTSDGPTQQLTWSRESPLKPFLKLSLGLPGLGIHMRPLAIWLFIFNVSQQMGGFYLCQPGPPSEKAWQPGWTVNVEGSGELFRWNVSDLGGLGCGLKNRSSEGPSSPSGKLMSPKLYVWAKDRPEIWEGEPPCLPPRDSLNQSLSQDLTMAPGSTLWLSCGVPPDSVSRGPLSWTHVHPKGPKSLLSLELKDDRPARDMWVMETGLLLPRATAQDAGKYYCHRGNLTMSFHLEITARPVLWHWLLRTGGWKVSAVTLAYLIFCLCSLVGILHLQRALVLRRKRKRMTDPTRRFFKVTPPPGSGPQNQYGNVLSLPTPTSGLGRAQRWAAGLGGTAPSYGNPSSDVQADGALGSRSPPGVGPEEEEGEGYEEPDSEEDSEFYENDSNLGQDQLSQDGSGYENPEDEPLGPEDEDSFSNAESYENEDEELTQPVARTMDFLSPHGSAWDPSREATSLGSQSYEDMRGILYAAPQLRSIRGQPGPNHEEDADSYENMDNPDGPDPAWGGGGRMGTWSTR
The test can be described thus: FCM or ELISA (graded summary table).

Another test addresses CD40 (UniProt P25942 21-193, limits assumed). The test can be described thus: FCM or ELISA, graded.
The target in the next test is PD-1 (binding assay) (UniProt Q15116 25-167, limits assumed). Briefly: FCM or ELISA, graded.
Chain of PD-1 (binding assay) (Q15116 25-167 limits assumed): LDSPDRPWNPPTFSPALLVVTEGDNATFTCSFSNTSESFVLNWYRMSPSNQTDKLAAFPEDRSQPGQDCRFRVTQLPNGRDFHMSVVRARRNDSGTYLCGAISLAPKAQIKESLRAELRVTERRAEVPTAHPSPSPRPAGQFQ

Chain of CD40 (P25942 21-193 limits assumed): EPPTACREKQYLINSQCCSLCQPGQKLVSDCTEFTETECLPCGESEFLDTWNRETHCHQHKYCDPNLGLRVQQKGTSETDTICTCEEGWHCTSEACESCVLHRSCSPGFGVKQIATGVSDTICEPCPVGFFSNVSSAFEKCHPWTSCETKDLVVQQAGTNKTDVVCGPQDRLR

B1: Ly1965 (bispecific antibody)
chain 1: QVQLVQSGAEVKKPGASVKVSCKASGYTFTSYVMHWVRQKPGQGLEWIGYINPYNEGTESTDKFKGRATMTSDKSTSTVYMELSSLRSEDTAVYYCASIYYGYEGTYFGVWGQGTLVTVSSASTKGPSVFPLAPSSKSTSGGTAALGCLVKDYFPEPVTVSWNSGALTSGVHTFPAVLQSSGLYSLSSVVTVPSSSLGTQTYICNVNHKPSNTKVDKKVEPKSCGGGGSGGGGSGGGGSGGGGSEVQLVESGGGLVQPGGSLRLSCAASGFTFSTYAMNWVRQAPGKGLEWVGRIRSKYNNYATYYADSVKGRFTISRDDSKNSLYLQMNSLKTEDTAVYYCVRHGNFGNSYVSWFAYWGQGTLVTVSSGGGGSDKTHTCPPCPAPEAAGPSVFLFPPKPKDTLMISRTPEVTCVVVDVSHEDPEVKFNWYVDGVEVHNAKTKPREEQYNSTYRVVSVLTVLHQDWLNGKEYKCKVSNKALPAPIEKTISKAKGQPREPQVYTLPPSREEMTKNQVSLWCLVKGFYPSDIAVEWESNGQPENNYKTTPPVLDSDGSFFLYSKLTVDKSRWQQGNVFSCSVMHEALHNHYTQKSLSLSPG
chain 2: QVQLVQSGAEVKKPGASVKVSCKASGYTFTSYVMHWVRQKPGQGLEWIGYINPYNEGTESTDKFKGRATMTSDKSTSTVYMELSSLRSEDTAVYYCASIYYGYEGTYFGVWGQGTLVTVSSASTKGPSVFPLAPSSKSTSGGTAALGCLVKDYFPEPVTVSWNSGALTSGVHTFPAVLQSSGLYSLSSVVTVPSSSLGTQTYICNVNHKPSNTKVDKKVEPKSCGGGGSGGGGSGGGGSGGGGSQAVVTQEPSLTVSPGGTVTLTCRSSTGAVTTSNYANWVQQKPGQAPRGLIGGTNKRAPWTPARFSGSLLGGKAALTITGAQAEDEADYYCALWYSNLWVFGGGTKLTVLGGGGSDKTHTCPPCPAPEAAGPSVFLFPPKPKDTLMISRTPEVTCVVVDVSHEDPEVKFNWYVDGVEVHNAKTKPREEQYNSTYRVVSVLTVLHQDWLNGKEYKCKVSNKALPAPIEKTISKAKGQPREPQVYTLPPSREEMTKNQVSLSCAVKGFYPSDIAVEWESNGQPENNYKTTPPVLDSDGSFFLVSKLTVDKSRWQQGNVFSCSVMHEALHNRFTQKSLSLSPG
light: EIVLTQSPATLSLSPGERATLSCRASSSVSYMHWYQQKPGQAPRPWIYATSNLASGIPARFSGSRSGTDYTLTISSLEPEDFAVYYCQQWSSNTLTFGGGTKVEIKRTVAAPSVFIFPPSDEQLKSGTASVVCLLNNFYPREAKVQWKVDNALQSGNSQESVTEQDSKDSTYSLSSTLTLSKADYEKHKVYACEVTHQGLSSPVTKSFNRGEC
notes: Bispecific B7H3 (two Fabs) / CD3 (central Fv)
With B1, the binding result in the test with B7H3 is recorded as “binds”.

B2: Ly2326 (bispecific antibody, human IgG1, kappa)
chain 1: QVQLQQSGAELVRPGSSVKISCKASGYAFSSYWMNWVKQRPGQGLEWIGQIWPGDGDTNYNGKFKGKATLTADESSSTAYMQLSSLASEDSAVYFCARRETTTVGRYYYAMDYWGQGTTVTVSSASTKGPSVFPLAPSSKSTSGGTAALGCLVKDYFPEPVTVSWNSGALTSGVHTFPAVLQSSGLYSLSSVVTVPSSSLGTQTYICNVNHKPSNTKVDKKVEPKSCDKTHTCPPCPAPEAAGPSVFLFPPKPKDTLMISRTPEVTCVVVDVSHEDPEVKFNWYVDGVEVHNAKTKPREEQYNSTYRVVSVLTVLHQDWLNGKEYKCKVSNKALPAPIEKTISKAKGQPREPQVYTLPPSREEMTKNQVSLWCLVKGFYPSDIAVEWESNGQPENNYKTTPPVLDSDGSFFLYSKLTVDKSRWQQGNVFSCSVMHEALHNHYTQKSLSLSPGGGGGSGGGGSGGGGSGGGGSQVQLVQSGAEVKKPGASVKVSCKASGYTFAGFEMHWVRQAPGQGLEWMGAIDPKTGGTDYNQKFKDRVTMTRDTSISTAYMELSRLRSDDTAVYYCARDLGYFDVWGQGTLVTVSS
chain 2: QVQLQQSGAELVRPGSSVKISCKASGYAFSSYWMNWVKQRPGQGLEWIGQIWPGDGDTNYNGKFKGKATLTADESSSTAYMQLSSLASEDSAVYFCARRETTTVGRYYYAMDYWGQGTTVTVSSASTKGPSVFPLAPSSKSTSGGTAALGCLVKDYFPEPVTVSWNSGALTSGVHTFPAVLQSSGLYSLSSVVTVPSSSLGTQTYICNVNHKPSNTKVDKKVEPKSCDKTHTCPPCPAPEAAGPSVFLFPPKPKDTLMISRTPEVTCVVVDVSHEDPEVKFNWYVDGVEVHNAKTKPREEQYNSTYRVVSVLTVLHQDWLNGKEYKCKVSNKALPAPIEKTISKAKGQPREPQVYTLPPSREEMTKNQVSLSCAVKGFYPSDIAVEWESNGQPENNYKTTPPVLDSDGSFFLVSKLTVDKSRWQQGNVFSCSVMHEALHNRFTQKSLSLSPGGGGGSGGGGSGGGGSGGGGSDIQMTQSPSSLSASVGDRVTITCRASQDIRSNLNWYQQKPGGAVKLLIYYTSRLHSGVPSRFSGSGSGTDYTLTISSLQPEDFATYFCQQSEKLPRTFGGGTKVEIR
light: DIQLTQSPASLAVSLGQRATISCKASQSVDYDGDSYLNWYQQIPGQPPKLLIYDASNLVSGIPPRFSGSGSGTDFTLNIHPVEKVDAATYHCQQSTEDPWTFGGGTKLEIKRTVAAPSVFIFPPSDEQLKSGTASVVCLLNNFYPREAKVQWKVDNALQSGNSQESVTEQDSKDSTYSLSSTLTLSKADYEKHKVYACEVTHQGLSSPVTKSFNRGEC
notes: Bispecific CD19 (two Fabs) / CD137 (terminal Fv)
Take B2: the binding result with CD137 and with CD19 was “binds” each time.

B3: Ly2405 (bispecific antibody, human IgG1, kappa)
heavy 1: not shown
heavy 2: QVTLKESGPALVKPTQTLTLTCTFSGFSLSTSGTCVSWIRQPPGKALEWLATICWEDSKGYNPSLKSRLTISKDTSKNQAVLTMTNMDPVDTATYYCARREDSGYFWFPYWGQGTLVTVSSASTKGPSVFPLAPSSKSTSGGTAALGCLVKDYFPEPVTVSWNSGALTSGVHTFPAVLQSSGLYSLSSVVTVPSSSLGTQTYICNVNHKPSNTKVDKKVEPKSCDKTHTCPPCPAPEAAGPSVFLFPPKPKDTLMISRTPEVTCVVVDVSHEDPEVKFNWYVDGVEVHNAKTKPREEQYNSTYRVVSVLTVLHQDWLNGKEYKCKVSNKALPAPIEKTISKAKGQPREPQVYTLPPSREEMTKNQVSLSCAVKGFYPSDIAVEWESNGQPENNYKTTPPVLDSDGSFFLVSKLTVDKSRWQQGNVFSCSVMHEALHNRFTQKSLSLSPGGGGGSGGGGSGGGGSGGGGSDIQMTQSPSSVSASVGDRVTITCRASQGIYSWLAWYQQKPGKAPNLLIYTASTLQSGVPSRFSGSGSGTDFTLTISSLQPEDFATYYCQQANIFPLTFGGGTKVEIK
light: NIQMTQSPSSLSASVGDRVTITCKAGQNVNNYLAWYQQKPGKAPKVLIFNANSLQTGVPSRFSGSGSGTDFTLTISSLQPEDFATYYCQQYNSWPTFGGGTKVEIKRTVAAPSVFIFPPSDEQLKSGTASVVCLLNNFYPREAKVQWKVDNALQSGNSQESVTEQDSKDSTYSLSSTLTLSKADYEKHKVYACEVTHQGLSSPVTKSFNRGEC
notes: PD-1 Fabs (Ly516) x terminal CD40 Fv (TM383)
Regarding B3, the binding result with CD40 and in the test with PD-1 (binding assay) was “binds” each time.

B4: Ly2409 (bispecific antibody)
heavy 1: QVTLKESGPALVKPTQTLTLTCTFSGFSLSTSGTCVSWIRQPPGKALEWLATICWEDSKGYNPSLKSRLTISKDTSKNQAVLTMTNMDPVDTATYYCARREDSGYFWFPYWGQGTLVTVSSASTKGPSVFPLAPSSKSTSGGTAALGCLVKDYFPEPVTVSWNSGALTSGVHTFPAVLQSSGLYSLSSVVTVPSSSLGTQTYICNVNHKPSNTKVDKKVEPKSCGGGGSGGGGSGGGGSGGGGSEVQLVESGGGLVQPGGSLRLSCAASGFTFTNYGLHWVRQAPGKGLEWVSSISPSGGVTYYRDSVKGRFTISRDNSKNTLYLQMNSLRAEDTAVYYCAKPFLGWGGANWIAHWGQGTLVTVSSGGGGSDKTHTCPPCPAPEAAGPSVFLFPPKPKDTLMISRTPEVTCVVVDVSHEDPEVKFNWYVDGVEVHNAKTKPREEQYNSTYRVVSVLTVLHQDWLNGKEYKCKVSNKALPAPIEKTISKAKGQPREPQVYTLPPSREEMTKNQVSLWCLVKGFYPSDIAVEWESNGQPENNYKTTPPVLDSDGSFFLYSKLTVDKSRWQQGNVFSCSVMHEALHNHYTQKSLSLSPG
heavy 2: QVTLKESGPALVKPTQTLTLTCTFSGFSLSTSGTCVSWIRQPPGKALEWLATICWEDSKGYNPSLKSRLTISKDTSKNQAVLTMTNMDPVDTATYYCARREDSGYFWFPYWGQGTLVTVSSASTKGPSVFPLAPSSKSTSGGTAALGCLVKDYFPEPVTVSWNSGALTSGVHTFPAVLQSSGLYSLSSVVTVPSSSLGTQTYICNVNHKPSNTKVDKKVEPKSCGGGGSGGGGSGGGGSGGGGSDIQMTQSPSSLSASVGDRVTITCLASEDISNDLAWYQQKPGKAPKLLIYFVDRLLDGVPSRFSGSGSGTDFTLTISSLQPEDFATYYCQQSYKYPPTFGQGTKLEIKGGGGSDKTHTCPPCPAPEAAGPSVFLFPPKPKDTLMISRTPEVTCVVVDVSHEDPEVKFNWYVDGVEVHNAKTKPREEQYNSTYRVVSVLTVLHQDWLNGKEYKCKVSNKALPAPIEKTISKAKGQPREPQVYTLPPSREEMTKNQVSLSCAVKGFYPSDIAVEWESNGQPENNYKTTPPVLDSDGSFFLVSKLTVDKSRWQQGNVFSCSVMHEALHNRFTQKSLSLSPG
light: B3 light
notes: PD-1 Fabs (Ly516) x central CD40 Fv (TM559)
As to B4, the binding result in the test with CD40 and with PD-1 (binding assay) was “binds” in each case.
